One test relates to murine C2C12 myoblasts. The test is described as follows: Myotube formation and myogenesis gene expression in C2C12 myoblasts. It counts as cell-based, mouse. The protocol: FIG. 12. […] The C2C12 myotubes were treated with indicated doses of RUCILP2 overnight and myotube images were collected at magnification, ×10.
FIG. 28. […] White preadipocytes from human visceral fat (C-12732, PromoCell) were cultured until 80% confluent and switched into differentiation media (with 0.3 ml/ml of fetal calf serum (FCS), 8 ug/ml of d-biotin, 0.5ug/ml of insulin, 400 ng/ml of dexamethasone) in the presence of 15 nM of 21-AABP2. The differentiation process to mature adipocytes was completed after 14 days. Cells were harvested after 14 days of differentiation and the indicated genes were quantified by q-PCR. Inguinal fat tissues from 6-week-old wild-type C57BL/6J female mice were dissected and washed with PBS, minced and digested for 1 hour at 37° C. in PBS containing 10 mM CaCl2, 2.4 U/ml dispase II (Roche) and 10 mg/ml collagenase D (Roche). After adding warm DMEM/F12 (1:1) with 10% FCS, digested tissue was filtered through a […] cell strainer and centrifuged at 600×g for 10 minutes. Pellet was resuspended by 40 ml DMEM/F12 (1:1) with 10% FCS and filtered through a […] cell strainer followed by centrifugation at 600×g for 10 minutes. Pelleted inguinal stromal vascular cells were grown to confluence and split onto 12-well plates. The cells were induced to differentiate by treatment with […], 0.5 mM isobutyl methyl xanthine for 2 days. After that, cells were maintained in […] for 4 days with medium change every other day. The cells were treated with 15 nM of 21-AABP2 every other day during 6 days of differentiation. Cells were harvested after 6 days of differentiation and thermogenesis gene were quantified by q-PCR. C2C12 myoblasts (CRL-1772, ATCC) were cultured until 80% confluent and switched into differentiation media (with 2% horse serum). The treatment with 21-AABP2 started from the second day of differentiation. Cells were harvested after 4 days of differentiation and expression of myogenesis genes were quantified by q-PCR. Data are presented as mean+/−SEM of one representative experiment done in biological triplicates. Statistical significance was determined by unpaired two-tailed Student's t test, *, p<0.05
FIG. 29. […] Representative images of myoblasts (CRL-1772, ATCC) at 24h of differentiation in the presence of phosphate buffered saline (PBS, blank) or 21-AABP2 (15 nM). Presented images were from one representative experiment done in biological triplicates.
C2C12 cells were seeded on 12-well plates under DMEM/F-12 medium (Dulbecco's Modified Eagle Medium/Nutrient Mixture F-12, Fisher Scientific, #11524436), supplemented with 10% FBS (Fetal Bovine Serum, Fisher Scientific, #11550356) and 1% Penicillin-Streptomycin (Fisher Scientific, #11548876). Cell cultures were maintained in a humidified chamber with 5% CO2 at 37° C., and culture media were changed every 2-3 days.
At approximately 80% confluence, 10% fetal bovine serum was replaced with 2% horse serum to induce C2C12 myoblast cells to differentiate into myotubes. Twenty-four hours later (day 1 of the differentiation), the cells were treated with recombinant RUCILP2 or commercial recombinant irisin (Sigma, #SRP8039-10UG and Phoenix pharmaceuticals, #067-29A) or saline. For integrin inhibitor treatment, cells were treated with 10 μM of CycloRGDyK (Selleckchem, #S7844) for 10 minutes and washed with PBS before treated with recombinant RUCILP2 or commercial recombinant irisin or saline. At day three, the cells were refreshed with the same media as day one. After treatments for six hours on day 3, C2C12 cells were harvested for qRT-PCR analysis.
C2C12 myoblasts were cultured until 80% confluent and switched into differentiation media (with 2% horse serum). The treatment with 21-AABP2 started from the second day of differentiation. Representative images of the formed myotubes at 24h of differentiation in the presence of PBS (blank) or 21-AABP2 (15 nM) were captured. […]

Test [1] deals with subcutaneous white adipose tissue (SWAT) and liver. Kind of test: Intraperitoneal RUCILP1 or RUCILP2 for 7 days in mice, gene expression in SWAT and liver. It counts as in vivo, mouse. To be noted: 1 mg/kg i.p. The protocol: FIG. 46. Effects of RUCILP1 and RUCILP2 on gene expression in vivo. Recombinant RUCILPs were daily injected into peritoneum of 8-week-old wild type C57BL/6N mice at a concentration of 1 mg/kg for one week. The mRNA levels of indicated genes in subcutaneous white adipose tissue (SWAT) and liver were analyzed by qRT-PCR. n=6 animals per group. * indicates p<0.05 using one-way ANOVA followed by Dunnett post hoc correction. Data are expressed as mean±SEM.
For the RUCILPs intervention study, male mice (n=6 per group, 8 weeks of age) fed with standard chow diet were treated daily with an in intraperitoneal injection of 1 mg/kg recombinant RUCILP1, RUCILP2, or saline, respectively, for a week. All animals were then sacrificed and subcutaneous fat pads and liver were collected. The mRNA levels of indicated genes in subcutaneous fat and liver were analyzed by qRT-PCR as described in standard protocol for gene expression analysis.
Total RNA from cells or tissues was extracted according to the instructions provided by manufacturer of RNeasy mini kit (Qiagen) using QIAzol lysis reagent (Qiagen), followed by measurements of RNA purities and concentrations by NanoDrop 2000 spectrophotometer (Thermo Scientific). A total of 1 μg of RNA was used for the reverse transcription to cDNA using the iScript™ Select cDNA Synthesis Kit (Bio-Rad Laboratories). The samples were subjected to real-time PCR using the LC480 system (Roche Diagnostics) after premixing with Precision®PLUS Master Mix (Primer Design). For each indicated gene, samples were run in duplicate in a 384-well plate and ΔΔCt method was used for quantifying the expressions after normalization to the housekeeping Rpl36 or GAPDH gene.

B1: RUCILP2: 87 amino acid irisin-like polypeptide cleaved from the Ruminococcus torques FNDC5-like protein RUMTOR_00181; recombinant, 6-His-tagged from E. coli (protein)
chain: APVDVKVSEITETSAKASWKNAADGKEAAGYNVYVDGVKLNKELLTEASCGLTNLKAETTYFVEVTAVDAAGNESVKSEKVTFKTLK
modifications: 6-His tag; Ruminococcus torques
notes: 87 amino acid irisin-like polypeptide cleaved from the Ruminococcus torques FNDC5-like protein RUMTOR_00181; recombinant, 6-His-tagged from E. coli
As for B1, the myotube formation result in the test with murine C2C12 myoblasts (C2C12, treated overnight) was “induces myotube formation”. For the same molecule, in the test on murine C2C12 myoblasts (C2C12 myoblasts, dose-response), the “expression of Heyl” value is recorded as “more clear dose-dependence response”; the “myotube formation markers Sox8 and Stat3” value was “less dose-dependent”. Besides, in test [1], the “gene markers for white adipocytes AdipoQ and Ppara in SWAT” value is “diminishes expression”; the “genes involved in gluconeogenesis G6pase and Pepck1 in liver” value is given as “lowered expression”; the “thermogenic markers Ucp1, Prdm16, Dio2 in SWAT” value is listed as “comparable effects”.

B2: RUCILP1: 88 amino acid FNIII domain polypeptide of RUMTOR_00181 from Ruminococcus torques (protein)
chain: APVDVKVSEVTETSAKVSWKNAADGKEAAGYNVYVDGTKVNEELIAETTYNVSSLKDGTTYSVEVTAVDAAGEESAKSEKVEFTTVKK
modifications: Ruminococcus torques
notes: 88 amino acid FNIII domain polypeptide of RUMTOR_00181 from Ruminococcus torques
Regarding B2, in the test with murine C2C12 myoblasts (C2C12 myoblasts, dose-response), the “myotube formation markers Sox8 and Stat3” value is “less dose-dependent”. Also, in test [1], the “gene markers for white adipocytes AdipoQ and Ppara in SWAT” value is “did not find significant reduction”; the “genes involved in gluconeogenesis G6pase and Pepck1 in liver” value is “no effect”; the “thermogenic markers Ucp1, Prdm16, Dio2 in SWAT” value was “comparable effects”.

The record behind these values is patent US20240336661A1, “PEPTIDES DERIVED FROM RUMINOCOCCUS TORQUES” (University of Copenhagen, priority 2021, published 2024).
